{
  "source": "patent US20160201045A1",
  "about": "“Endo-xylanase and Coding Gene and Use Thereof” (SHANGHAI INSTITUTES FOR BIOLOGICAL SCIENCES CHINESE ACADEMY …, priority 2013, published 2016)",
  "assay_type_in_all_cases": "biochemical",
  "key": {"[1]": {"experiment": "Standard enzymatic activity detection (DNS method) on birch xylan", "settings": "substrate 2% (w/w), pH7.0, 50, 10 minutes", "procedure": "(§1) Enzymatic activity of the endo-1,4-β-xylanase was tested by a DNS method as follows:\n(§2) 10 g NaOH were weighed and dissolved in about 400 ml ddH2O. 10 g dinitrosalicylic acid, 2 g phenol, 0.5 g anhydrous sodium sulfite and 200 g potassium sodium tartrate tetrahydrate were weighed and dissolved in about 300 ml ddH2O. The two solutions were mixed, diluted to 1 liter and preserved in dark.\n(§3) 100 μl DNS were added into each of the above standard samples. The mixtures were subjected to boiled water bath for 5 minutes for developing color. Absorbance value at 540 nm was detected by a microplate reader. Standard sample 1 was a blank control. The absorbance value of the blank control was subtracted from that of each sample and then the standard curve was plotted.\n(§4) In a 100 μl reaction system, birch xylan was added to a final concentration of 1% (w/w), and Na2HPO4/NaH2PO4 buffer (pH7.0) was added to a final concentration of 100 mM. A suitable amount of enzyme solution diluted by the abovementioned buffer was added to the reaction system for reaction at 50[…] for 10 minutes. 100 μl DNS were added to stop the reaction. For the control, 100 μl DNS were firstly added to the above reaction system before adding the enzyme solution. The reaction mixtures were subjected to a boiled water bath for 5 minutes to develop color. Absorbance value at 540 nm was detected by a microplate reader. After subtracting the absorbance value of the control from that of the sample, the enzymatic activity unit (U) was calculated based on the standard curve.\nDefinition of enzymatic activity unit (U): 1U refers to the amount of enzyme required for catalytically hydrolyzing xylan to produce 1 μmol xylose.\nDefinition of specific activity unit: enzymatic activity of 1 mg protein (U/mg).\nVarious substrates with a final concentration of 2% (w/w) were treated by a suitable amount of enzymes at pH7.0 and 50[…] for 10 minutes. Enzymatic activity was tested according to the above standard enzymatic activity detection steps. […] No detectable enzymatic activity was found for the other test substrates. […]"}, "[2]": {"experiment": "Hydrolysis of Xyl7 on different substrates (DNS method)", "settings": "substrate 2% (w/w), pH7.0, 50, 10 minutes", "procedure": "as §4\nVarious substrates with a final concentration of 2% (w/w) were treated by a suitable amount of enzymes at pH7.0 and 50[…] for 10 minutes. Enzymatic activity was tested according to the above standard enzymatic activity detection steps. […] No detectable enzymatic activity was found for the other test substrates. This was consistent to the high substrate specificity of xylanase of the GH11 Family."}, "[3]": {"experiment": "Residual activity under pulp bleaching conditions (alkaline pH, high temperature)", "settings": "50-70, pH8-9, one to two hours", "procedure": "as §4, with “curve. […]” for “curve.”"}, "[4]": {"experiment": "Specific activity of the xylanase on beech xylan (DNS method)", "settings": "pH7.0, 50° C., 10 minutes", "procedure": "as §1, §2, §3\nIn a 100 μl reaction system, birch xylan was added to a final concentration of 1% (w/w), and Na2HPO4/NaH2PO4 buffer (pH7.0) was added to a final concentration of 100 mM. A suitable amount of enzyme solution diluted by the abovementioned buffer was added to the reaction system for reaction at 50[…] for 10 minutes. 100 μl DNS were added to stop the reaction. […] Absorbance value at 540 nm was detected by a microplate reader. After subtracting the absorbance value of the control from that of the sample, the enzymatic activity unit (U) was calculated based on the standard curve. […]"}},
  "note": "Where “and” joins values, the source holds several entries; their conditions need not be identical. Equal entries are not always repeated.",
  "data": [
    {"molecule": "Xyl7: endo-1,4-β-xylanase of 505 amino acids, SEQ ID NO:2, from termite gut metagenome, expressed in E. coli with His tag (protein, His tag; Intestinal tract metagenome of termite) MKKLIALSFIAAFFAPLFAQGPTWTTSTIQAYNGYDYELWNQNNAGTVSMKLTGDNGSGASAVGGTFTATWSNTQNVLFRSGKKWGSSSNQNHTQIGNMSINFAATWSSTDNVKMLGVYGWAYFTSANVPTKQENGTNASFSNQIEYYIIQDRGSYNPASGGTNAKKYGSATIDGIAYDFYVCDRINQPMLTGNGNFKQFFSVPQSASAHRTSGTISVSQHFNKWHELGMKMDGPLYEVAMKVESYTGSGSSNGSATVTKNLLTIGGTTPTPSSNSGGTTSSSSRASSSSRASSSSNAAVQATTCKTPLITYPTSTVPSDPYTACFKYTDDKCYVCKVENEGEFEGNMNTCGSGWVWDGTQIDNNLRDGYWYQEVPCPAGSSSSRSSSSSVAVSSSSRSSSSSVAASSSSRSSSSSASVSSSSEETPIRVLHTIPSKFRVRSLNNGALQIESNADVVLYLYDTKGKMAQKIEAPTGSSIVKLSVPAGIYIVRNVQTKEKLRVMVR", "values": [
      {"measurement": "Specific Activity on birch xylan", "setting": "[1]", "value": "4700 ± 57", "unit": "U/mg"},
      {"measurement": "Specific Activity on barley dextran", "setting": "[2]", "value": 0, "unit": "U/mg"},
      {"measurement": "Specific Activity on carboxymethyl cellulose sodium", "setting": "[2]", "value": 0, "unit": "U/mg"},
      {"measurement": "Specific Activity on laminarin", "setting": "[2]", "value": 0, "unit": "U/mg"},
      {"measurement": "Specific Activity on locust bean gum", "setting": "[2]", "value": 0, "unit": "U/mg"},
      {"measurement": "Specific Activity on microcrystalline cellulose powder", "setting": "[2]", "value": 0, "unit": "U/mg"},
      {"measurement": "residual enzymatic activity at high temperature in alkaline environment", "setting": "[3]", "value": "retain a sufficiently high enzymatic activity"},
      {"measurement": "Specific Activity on beech xylan", "setting": "[4]", "value": "6340 U/mg and 6340 ± 48 U/mg"},
      {"measurement": "Specific Activity on beech xylan", "setting": "[4]; listed as xylanase of the present disclosure", "value": "higher than 6340 U/mg"}
    ]}
  ]
}
